PMC2853121

Columns and labels:
[1] = biological target: C3b (Homo sapiens, UniProt P01024;P01024 23-667;749-1663); test: filter binding
[2] = biological target: T1, iC3b (Homo sapiens, UniProt P01024;P01024;P01024 23-667;749-1303;1321-1663); test: filter binding
[3] = biological target: T1, iC3b; test: EMSA

T1 sequence (P01024 23-667, chain 1 of 3): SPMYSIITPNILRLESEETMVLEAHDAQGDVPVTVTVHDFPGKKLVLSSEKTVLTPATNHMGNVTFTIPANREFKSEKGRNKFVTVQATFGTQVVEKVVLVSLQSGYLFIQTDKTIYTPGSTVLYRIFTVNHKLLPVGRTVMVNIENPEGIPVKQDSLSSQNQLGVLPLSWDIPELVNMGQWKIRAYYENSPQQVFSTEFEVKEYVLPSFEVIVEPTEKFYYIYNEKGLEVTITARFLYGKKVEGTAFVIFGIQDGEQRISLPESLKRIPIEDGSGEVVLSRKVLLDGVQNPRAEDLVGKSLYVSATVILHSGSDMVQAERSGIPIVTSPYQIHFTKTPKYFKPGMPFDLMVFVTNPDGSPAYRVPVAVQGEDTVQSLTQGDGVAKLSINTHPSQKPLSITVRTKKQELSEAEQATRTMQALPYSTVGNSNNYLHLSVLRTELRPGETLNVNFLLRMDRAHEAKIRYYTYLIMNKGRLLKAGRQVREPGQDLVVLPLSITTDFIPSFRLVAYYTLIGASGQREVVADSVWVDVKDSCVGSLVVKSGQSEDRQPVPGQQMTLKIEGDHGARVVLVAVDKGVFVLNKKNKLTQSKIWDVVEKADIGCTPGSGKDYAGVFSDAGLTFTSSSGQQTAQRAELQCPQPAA
T1 sequence (P01024 749-1303, chain 2 of 3): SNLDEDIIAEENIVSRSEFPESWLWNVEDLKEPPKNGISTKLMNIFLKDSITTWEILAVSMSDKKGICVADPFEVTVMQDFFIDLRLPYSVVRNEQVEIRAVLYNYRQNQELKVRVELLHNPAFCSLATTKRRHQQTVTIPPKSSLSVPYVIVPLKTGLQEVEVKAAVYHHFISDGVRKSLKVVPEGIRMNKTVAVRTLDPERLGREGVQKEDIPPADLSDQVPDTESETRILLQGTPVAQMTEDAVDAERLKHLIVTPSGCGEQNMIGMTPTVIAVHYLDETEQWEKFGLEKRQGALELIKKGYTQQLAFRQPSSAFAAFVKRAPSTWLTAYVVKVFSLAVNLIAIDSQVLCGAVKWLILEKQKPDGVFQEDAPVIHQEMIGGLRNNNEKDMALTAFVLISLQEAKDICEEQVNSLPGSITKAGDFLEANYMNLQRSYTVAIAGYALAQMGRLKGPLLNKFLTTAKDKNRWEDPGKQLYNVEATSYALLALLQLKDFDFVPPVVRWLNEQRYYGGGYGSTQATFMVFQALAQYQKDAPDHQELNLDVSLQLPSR
T1 sequence (P01024 1321-1663, chain 3 of 3): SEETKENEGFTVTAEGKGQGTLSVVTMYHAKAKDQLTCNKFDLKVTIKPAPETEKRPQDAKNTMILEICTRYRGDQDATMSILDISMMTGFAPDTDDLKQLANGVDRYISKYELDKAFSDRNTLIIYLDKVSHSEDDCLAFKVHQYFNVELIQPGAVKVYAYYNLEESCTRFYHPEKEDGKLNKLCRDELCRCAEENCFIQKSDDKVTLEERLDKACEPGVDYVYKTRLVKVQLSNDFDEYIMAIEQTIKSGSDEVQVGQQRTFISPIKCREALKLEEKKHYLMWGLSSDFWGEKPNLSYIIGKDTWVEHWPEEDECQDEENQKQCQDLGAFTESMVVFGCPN
Sequence of C3b (P01024 23-667, chain 1 of 2): as the sequence (P01024 23-667, chain 1 of 3) above
Sequence of C3b (P01024 749-1663, chain 2 of 2): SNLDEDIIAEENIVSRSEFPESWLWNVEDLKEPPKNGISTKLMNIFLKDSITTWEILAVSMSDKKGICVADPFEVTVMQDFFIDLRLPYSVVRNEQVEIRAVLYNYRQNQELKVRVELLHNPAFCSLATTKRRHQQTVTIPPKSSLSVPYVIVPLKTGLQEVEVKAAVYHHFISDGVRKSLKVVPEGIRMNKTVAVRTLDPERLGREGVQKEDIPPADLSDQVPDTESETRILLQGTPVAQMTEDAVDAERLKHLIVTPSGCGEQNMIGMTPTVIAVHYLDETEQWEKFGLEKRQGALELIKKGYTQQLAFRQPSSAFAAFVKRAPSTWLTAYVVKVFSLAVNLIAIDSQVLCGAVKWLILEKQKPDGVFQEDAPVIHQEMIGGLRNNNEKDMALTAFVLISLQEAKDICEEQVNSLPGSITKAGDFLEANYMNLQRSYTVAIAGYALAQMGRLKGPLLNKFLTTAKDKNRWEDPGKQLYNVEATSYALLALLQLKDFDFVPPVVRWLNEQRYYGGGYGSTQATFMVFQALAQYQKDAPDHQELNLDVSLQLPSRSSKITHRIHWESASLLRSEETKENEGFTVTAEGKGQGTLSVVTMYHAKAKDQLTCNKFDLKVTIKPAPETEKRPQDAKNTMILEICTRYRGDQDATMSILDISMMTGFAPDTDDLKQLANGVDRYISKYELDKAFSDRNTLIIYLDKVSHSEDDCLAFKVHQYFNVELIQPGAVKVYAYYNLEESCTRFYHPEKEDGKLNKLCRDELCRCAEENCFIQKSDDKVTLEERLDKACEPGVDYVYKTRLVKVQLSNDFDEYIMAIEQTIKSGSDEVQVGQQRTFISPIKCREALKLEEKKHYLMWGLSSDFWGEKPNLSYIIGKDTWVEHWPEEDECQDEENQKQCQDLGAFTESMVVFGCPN

Binder | binding result [1] | binding result [2] | binding result [3]
Apt[C3-GFP] (structured_RNA) RNA: GGGAGCCUGAUGGCAGGGCGAAUUGGGUGGGGAAAGUCCUUAAAAGAGGGCCACCACAGAAGCAAUGGGCUUCUGGACUCGGUCCCGCUCGGCUAGAAGAAUAUGACGGAUUGACCGUAUCAGGGUAGCCGAGC | binds | binds | 
AptC3-2 (structured_RNA) RNA: GGGAGAAUUCAACUGCCAUCUAGGCAAAUCCGCGAGCGCCGGUACCGGUGGCGCAUGCCCACACAGCACUAAACGAGUACUACAAGCUUCUGGACUCGGU |  |  | no binding
